Reference: the NTF2 design screens of Basanta et al. (2020)

Experiment: protease stability score; higher = more stable; yeast display proteolysis, trypsin and chymotrypsin;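 further: log10 excess protease needed over predicted unfolded state with 0 meaning unfolded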

“DEENRHQINEMWKQIQTNNPDEVMKQLDKDVQVVVGDKQIRGREEFAKHVEQLLREMDVEYHSIKVKVHNGEAHVKVRHTVDVNGKPREDTLDVQLQMKNGHVKHFELRIDEDKLEKLKR” showed a protease stability score of -0.169.

Sequence “DEDQHRRWQELMKAIETGDPERIKELMDPNAEFVVGDKHVRGREKYAREVHRELRTMRVEFRILSLRVQGDRLLADVEVVTHDDGKPTSHRFKLEVKAENGTIRVFRNQSVP” has a protease stability score of 0.155.

With “DEDANRELHKAMKHNDWDLLAKQMDKDVSKQVGDKTVHGRDRIQEDIKRLKTEIDHMEIEHVSARGDHLTADVHLVVNGQHVKFVIHIQFDNGRIKQIQWQVRDEDVEKQMKKLKG” the protease stability score was -0.074.

In the case of “DEKKIKEYVHELNRAFQNGDEDRLNQMMDKNVRAQYGDKEYHGRENAKKVMKDFRDQFDHLEIHSVNVRGDRVDIEAEAHNNGRTEHWIITIRLHNGHMTSIVIRKS”, the protease stability score is reported as -0.319.

In the case of “ENHVMNNAEKYLRLLEKGDEEELVKMADPNAKFRIGDKHVHGMESFADDLFRKQKEIRMEINIKHYEVQGDHVTIKAEQEKQHDGRPRRDTNKIIMQVHNGKIKQVTFTSDG”, the protease stability score is reported as -0.222.

Sequence “DETAERLEHQLKSALETGDEESAKKQFDPNVKFQYGDKVIHGMENAIERIVKRLKELHVSVELKSMHVEGNNIQADLVATENHNGQPRTRRFTLHVTWRNGRIQEIRQQDTK” has a protease stability score of 1.31.

Sequence “DEENAKIIENLIRANETNDPDRAVQLADENVDFRIGDRTYRGMDEYATQMAHEFKEIEMRIHLKTFDTQGEKVRLEADVKRTHNGKPESFRAVMVANASNGRVVEIDVQMDK” has a protease stability score of 0.974.

With “EEEVSKRAREFVEAYQTGNEDKMHRLVDENADAQYGDKHIHGMTEIKRHVKRLTEEIRVQVESMDVKANNGHVRVRVHLVLHINGNPIDVTVIIVMRFKNGTIRSVQFRMPEEARDTIRK” the protease stability score was -0.077.

“DEEHNKEVMENIITGNSDEMRKMVDPNAQLEIGDKRYHGRDQIDTFEHLMRDRVDNLEVKRYDLQGDKVHVDYVFVVNGKHARVRVSFSVKNGRFTQIRIEVTDEEVEKILREVQK” showed a protease stability score of 1.17.

In the case of “DDHNVRLAKKFREAYETGDEETVKSMADPNAHYHVGDKRITGRERQVRKMTRERRDMRVQVESIRYSNRNGRVDVKIVEVRNDNGHPKRMRIVLHVNFQNGKAKEFQIEDQE”, the protease stability score is reported as 0.226.

With “DQEDQQRLAEQFMRALDEGDSDTIAKLLDPNARVIVGDKTVHGHRHARRVIHEFRNRVDRVDVRTVEVDNGHVRIEAVLNFNGQRTRFVYHLKIDNGRFKEMQLRSK” the protease stability score was 0.892.

Work on “DEDETAKRVNDKAREAAETNNPKQFEELADPNVRMVIGDKEWRGRRQLSHWYKEMADRADHMQVDYQDVHVSGDKVTLHVQINLESNGHSEIKTLIVVMVVHNGRLRAQSQWEQ” yielded a protease stability score of 0.534.

Sequence “EEREVEEMQKILQHGDPKEFEDNMDPNADVEIGDQQYRGRETIAQVLQKFRDQIDHRHIEEVHIHGDHAVIDVVATVNGQDLKYIIVVKVENGKLKSARLQATDPRVKHRMQEVYE” has a protease stability score of 0.32.

Sequence “DEEEDKKMLDNINTIWERGNPDEIEKLIDPNARVQVGDKTLHGREQIKHFLKRLHERIDHFEYQSVSAHNGRMRARVRFRVNGVHVRMEIDATYNNGKVKKMEVRVTDEKHLERARK” has a protease stability score of 0.741.

Sequence “DPKKAFKVAEEAMKYFVKGNVDELKKILNPDGTARVADHETKGVEEIMKLLQRMKKHGVQVEVKEVRREGNQVEVHTVYHDGDETATLTVQYKAQNGKVDHIKVQYNERMKKIWEKG” has a protease stability score of 1.2.

Work on “DEKKIKDLARRVMQYYVSGNTEEVEKLGKDDVQVHFGDQTYHGVEQVKKVVKEFKEYGVELQLKDIQYDGDRADAEVEVHAGGHTWKFTVTVQLDGGKVDNLTFHVSDEAKKAIEHG” yielded a protease stability score of 0.982.

In the case of “DDEEALKVIHHFIEVMMSGDEETARRLADKNVEAHYGDRTYHGSEEAVRALIEWARSVDNMRIDSVTQEGNEVKVHVVAHFDGRRVEVDIVIEAHNGKINFVTINPDDIRRMKQ”, the protease stability score is reported as 0.831.

With “DEQDQARKNVKTLANAIEDNDENQVHRLMDPNARLRIGDKDYHGREEAAHAMREIRETFDHIRIQVTRVRVEGDKINLIAKVNRNHNGRNEESEVDIQFVQDNGRARIVRLVDR” the protease stability score was 0.554.

“DKDAQKKATEFLTAWEQGNESQLQKLMDPNAKVEIGDKVIDGREDWNRWIRERLKRMRFEIKSVDVQVHGDNVDINIDARVNHNGKPDRMTAKFVMRVHNGRIKSMTQHNDK” gave a protease stability score of 1.29.

In the case of “DESVKERMKRILETGDWKKLVEMADEDASVKVGEKEFHGREQVSDFFKELQDQADTQEIKHVSVHGEHVVNTMVIRFNGKEVHLVLTVQLTNGKIHSASVKFTSEEHHKIMLRAIS”, the protease stability score is reported as 0.257.

In the case of “DEESVQTFAQQRRQGNFEELIKMMDPNVEMKVGDKTWTGREQVQTALEHLKERVDRIQIDHMDVKGNHVDIDYVLNFNGRNVKATQKIEMKNGSAKRIQIDATNEENEKELKKAFS”, the protease stability score is reported as -0.163.

With “DEHKEAEELARQLQRVARHNNPDQFAHMLDKDVKIDIGDKTVHGRENARNMMTELVKDYDSLDAKVDSFDVHNGTIDIKMTFSFNHNGKTTTTSVEFRARKHNGHVRIVYIKYG” the protease stability score was 0.234.

With “DEETEDKARRFVEAFHTGDPKNINRLMDKDARMKYGDTTVHGRHQIDKWIKELKDEIRIELDRVEIRADNGRVTAELDMVFDVNGKPVKHTLVFIFQFHNGRMHEVKIRIDEDVLRKLKR” the protease stability score was 0.746.

With “DEELAKNLKEWWDVLKTGDTDRLKEMADPNAKFQIGDQTIHGMDRFVKEQVHHMQQMRFEIKVDSFSAHDGRIDIDAVQRVRVNGVPIDYTVKIRAEAHNGKWKSMELEIPENVVRELER” the protease stability score was 1.27.

In the case of “DHRAVEVIKEMFKALQTGDERRIVEMADKDATATVGDKRVHGMKEAAHDIATEFNEMRFQLSIKRVQHSGNNVKADVEATFHHNGKPRKVQVVIVLRLHNGKVQEMSIRNDG”, the protease stability score is reported as 1.17.

In the case of “DEERADELVELLTNNNFQSLADNADPNASIEYGDKTIRGRDEANKFLQNIERRADHVEIKSLKTKGNKIDIDLVVHVNGQKLRFKVEIKLRNGKVTHIRIQATSERDQRKFLEVVG”, the protease stability score is reported as 1.06.

For “DERHIHELVKNMQTNNFEEIKKQLDENVRVVVGDTVYHGREQASKALEDMKRMADRIRYTRVDFKGNKVRIDVVMNINGHNLKMVITVVVQNGRIKELVFTARNDEVKTRLDHAIR”, the protease stability score was 1.13.

With “DEEERRKAHELVKHNDWDKLMKNAPPDVTARIGDRTVHGMEEQVRIEHNMLRRVDENQLHSVDNSGNQLVVTLHVQINGRRFKFTVKIVIHNGQVTTVKVQARDEKEKRKLTELMG” the protease stability score was 0.566.

Work on “DSHEKAEKWARKLNQVWEHNDPDRAMEMVDPNVRVDIGDRRYHGREDWRKMVEHLNKRVDHMEFKFDQVDAHNGKIRITVTFTYTIDGQERTERLVFHVDNVNGRLVAQKAHDG” yielded a protease stability score of 0.343.

With “DEEHMQELAEELVKVMKRGDFKRYLDLASENAEVTYGEKSVRGREDLHKMQEELEKKVDHIHMKDFRVSGNQIHLFFVVHHDGRSREVVVTIEYHNGRITSVTYDEK” the protease stability score was -0.075.

Sequence “DERELSLFHRWLEVLNDGNEENLKQNMDPNAHANIGEKEIHGMEDFARHMITKVKELRIKIDDIKSSAHNGRLTASIDQQDNDNGKPDKYTNTFRAKFSNGQIQSQKVERDG” has a protease stability score of -0.31.

In the case of “DEDLARRLAEEMVKKATHGDEDTVRELIDPNVKFRYGDKDVEGRENFATELAEDMRTADHVHLKQVTIRGDTVQIDMRMVFDGSEDRHDLRLRAHNGKVQEVTIDQG”, the protease stability score is reported as -0.112.

For “DDSNNEIVKHMLEALHTGDPDQMSRLVDPNVRVNVGNKEVHGREQQREEVEKIKRDMRFEADLDDYHVHGEHLEFKVTYKAQINGKPYHFSADLNLTFHNGKLQSESARMDQHELEKLDG”, the protease stability score was 0.029.

“DQKKLKEQIKELWDALRTGDPQRAADLADPNARIQVGDKEITGREKFREHVKENKERIDRFTINDFKVQGDKARVDFHYEVNGQHRRVDATIVMRNGHIVSAQFDSQ” showed a protease stability score of 0.717.

“DENVVKEVEKLLEWIQSGNEQHIQEMMDKHARAQVGDQKVKGRKQVSTQWRRLAEDIDIHARVKDMKNDGNRAILEIHQVRHHNGDPDEFHANQIVTMHGDRIKHLELQNTK” gave a protease stability score of -0.283.

“DDRDLETMVRLWRDNDSKRLKQNVDPNARIRYGNFEVHGREQVQKWIKLFRDRVDHNDIKRYQTTPGRLVMQLSATFNGVKVKFTMIVEFHNGNIRLIQINFTDEENMKHLVREVE” gave a protease stability score of 1.55.

For “DEKDVRRLSKYLRALQKNDPDEVRRMADPNAKAEVGDKRIHGRDEFSKHVETRRRQMRITIEHYEIKNQGDKVELNVVRRSEHNGKPRRNSVRATYVFDNGKIHSYSVKHVP”, the protease stability score was -0.133.

With “DDSFVEKLQELLEDGNFERVADMADPNAQFRYGNRDLHGREELRKDAREFLSRVDHYQVDSFHVDNGQLNVTAQATFDGRDYKFTMTLRAKNGRVKSFKISFTSEQQNRQLDEKRE” the protease stability score was -0.004.

Work on “DDEVFRRFQEALDIVKKGDPKKFEEMADPNARVKVGDKQLHGRETIAKDIADHMKEMKIEWRVKKLTTNEDHVNVTERWQQKHDGRPEDRERRARVRARGDKLKNHEVETDG” yielded a protease stability score of 0.118.

Sequence “DEEDDKKMAETLKRLHNTGNPDELLKHFDPDAKFQIGEKTVHGREQAQEFMKRIKDRVDHQSVDSIHAHNGQVNVQVKVEINGKTRVVDIVYHFHNGRFKQVVFDPRAIRRMKS” has a protease stability score of 0.175.

“DNEFREEVKKAIDTGDPLEMVRQADKDVEVHVGDKYWHGREQVEKLMTLWKEQVDHLHVDRITHEPGRVKVDAVAQFNGVEFRFNMVIHAHNGKIKSVQFKNTDEDVKKKLEKILD” gave a protease stability score of -0.288.

In the case of “DEEDLKKLAKELEKAIKTGDPQKIVDMADPNAKAQIGDKEVHGQENLHEAMQKLSREVDHIEIRSLSIHGEKVELVFVLQVNGRKRTYTVEMTAHNGKITHMTWRHQ”, the protease stability score is reported as 0.284.

In the case of “DEDRMRKLLEQFLTALLQGDPEKMMELADEDVRMTYGDKEYHGREQVRDWAKDYRDKVDHASVHSYEVHGDKAQAIVVANVNGRTLSYTVVVRFQDGRAKHIKFESS”, the protease stability score is reported as 2.23.

With “DEDKRAREAAETAIQALRTGDPDKMVKLMDPNARVRVGDKTVTGHEEIRRWMQTIQDQIDHADITVESLTVNNGRAELIFVANFDRNGRTERTRYNLEIDVRGDKVQAHQMDHG” the protease stability score was 1.22.

Sequence “DEEDEQKLAQTLAEVWKQNDEDQFVRLLDKDARVKVGDNEFRGREEAKRMMQELHRRVDHMEIKSVHAKNGSITATLRAEINGKEWRFILEAVYHNGQVKSVHIRDQ” has a protease stability score of 1.68.

For “DDEKARRWLHTMRDVINRGDPDKWRKLVDENVRLEIGDKEYHGREDARKWMKELRDQVDEIHIKTISAHGDKIEVTMEYKHNGRTRRITVVARIRDGRIKMVQVRDS”, the protease stability score was 1.8.

Work on “DERARERVEELLQVENDGDPDKVMEYFDPNAKAEIGDKHIHGRETFRHRLERTNKEMRYHLEVEHIRVNGNNVEMTFRAETEHNGQPSHDRNHAVLHITNGRIKYKRVKRDG” yielded a protease stability score of 0.178.

For “DERDANEMMRVIREGDFNKFRQMADENVSAVYGDKTVRGRETIKRIIHRIKRHVDHLKVDSLSTTGDHVTVDAVMHVNGQRVHFVMVVRVQNGHIKEVQFEVRNEEAQKRLEQVLS”, the protease stability score was 1.18.

Sequence “DNSELAQQRWRDLRKAISENDPKTARDLFDPNVRIEVGEKTLHGRKAASDFVKEIKKDYDHAYLQVTDVDVQGEHVHAHVVLHAEHNGKTTSVEMEMEAVFQGDKLRVRMMRKS” has a protease stability score of 0.641.

For “DHTKQAETVARQMLEQLRDGNPEELKNMFDENVEADIGDTRYHGRESMVEFWQTILTRVDRNRLHIVDVQVQGNKIIVRVRVSFDRNGRQKEEEYVIVVRVNNGHYTADVVSLT”, the protease stability score was 0.772.
